Among the data in patent US20220380478A1 (published 2022) are Kd values, retold here.

Read-outs that look alike come from different tables or passages of the source.

One assay addresses Mouse_anti-CD40L. Put plainly: flow cytometry. Background: Flow cytometry measures light scatter and fluorescence of single cells or particles in a stream.
A further assay addresses Mouse anti hCD40L. The assay is described as follows: FACS cell binding; apparent Kd.
A further assay deals with T1, CD32aH (FcγRIIaH) (UniProt P12318 34-217).
T1 chain: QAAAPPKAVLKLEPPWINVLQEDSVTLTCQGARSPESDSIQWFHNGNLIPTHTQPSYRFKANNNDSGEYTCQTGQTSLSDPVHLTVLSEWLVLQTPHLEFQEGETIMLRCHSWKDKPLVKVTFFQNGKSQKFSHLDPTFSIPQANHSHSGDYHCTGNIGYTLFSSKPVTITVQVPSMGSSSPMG
The assay is described as follows: SPR. (In SPR one partner is held on a chip, and binding of the other changes the refractive index at the surface.)

A further assay addresses CD16aF (FcγRIIIaF) (UniProt P08637 17-208). Put plainly: SPR.
The next assay deals with CD16aV (FcγRIIIaV) (UniProt P08637 17-208). Put plainly: SPR.
The target in the next assay is T2, CD32bF (FcγRIIbF) (UniProt P31994 43-217).
T2 chain: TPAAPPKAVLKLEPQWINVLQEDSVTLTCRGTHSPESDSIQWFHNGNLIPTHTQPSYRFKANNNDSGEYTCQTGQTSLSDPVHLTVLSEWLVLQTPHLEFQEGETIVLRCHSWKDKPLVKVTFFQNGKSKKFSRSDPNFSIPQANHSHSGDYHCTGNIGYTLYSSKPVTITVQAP
The assay is described as follows: SPR.

Assay [1] addresses T3, FcγRIA (CD64) (UniProt P12314 16-292).
T3 chain: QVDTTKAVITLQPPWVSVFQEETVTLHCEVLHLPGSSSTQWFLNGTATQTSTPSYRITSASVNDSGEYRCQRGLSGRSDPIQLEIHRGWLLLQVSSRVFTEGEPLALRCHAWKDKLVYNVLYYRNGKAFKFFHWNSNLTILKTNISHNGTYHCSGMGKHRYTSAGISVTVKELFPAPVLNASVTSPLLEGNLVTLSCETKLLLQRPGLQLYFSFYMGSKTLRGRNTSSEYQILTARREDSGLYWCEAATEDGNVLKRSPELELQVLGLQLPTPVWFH
The assay is described as follows: SPR; avid.

Assay [2] addresses T3, FcγRIA (CD64). The assay is described as follows: SPR; avid.

CD16aV (FcγRIIIaV), sequence (P08637 17-208 F176V): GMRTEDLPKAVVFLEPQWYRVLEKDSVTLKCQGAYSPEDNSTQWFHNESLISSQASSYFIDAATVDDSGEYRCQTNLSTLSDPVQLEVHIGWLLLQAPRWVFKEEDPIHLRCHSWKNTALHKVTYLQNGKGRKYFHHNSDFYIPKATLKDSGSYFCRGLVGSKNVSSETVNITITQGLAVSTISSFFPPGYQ
CD16aF (FcγRIIIaF), sequence (P08637 17-208): as the sequence (P08637 17-208 F176V) above, with V160F counted along it

B1: D1.1 (ligand)
chain: MIETYNQTSPRSAATGLPISMKIFMYLLTVFLITQMIGSALFAVYLHRRLDKIEDERNLHEDFVFMKTIQRCNTGERSLSLLNCEEIKSQFEGFVKDIMLNKEETKKENSFEMQKGDQNPQIAAHVISEASSKTTSVLQWAEKGYYTMSNNLVTLENGKQLTVKRQGLYYIYAQVTFCSNREASSQAPFIASLCLKSPGRFERILLRAANTHSSAKPCGQQSIHLGGVFELQPGASVFVNVTDPSQVSHGTGFTSFGLLKL
For the molecule B1, the Kd with Mouse_anti-CD40L was found to be 0.339 nM; in the assay with Mouse anti hCD40L, 0.39 nM.

B2: TNX03 anti-CD154 monoclonal antibody (antibody)
heavy: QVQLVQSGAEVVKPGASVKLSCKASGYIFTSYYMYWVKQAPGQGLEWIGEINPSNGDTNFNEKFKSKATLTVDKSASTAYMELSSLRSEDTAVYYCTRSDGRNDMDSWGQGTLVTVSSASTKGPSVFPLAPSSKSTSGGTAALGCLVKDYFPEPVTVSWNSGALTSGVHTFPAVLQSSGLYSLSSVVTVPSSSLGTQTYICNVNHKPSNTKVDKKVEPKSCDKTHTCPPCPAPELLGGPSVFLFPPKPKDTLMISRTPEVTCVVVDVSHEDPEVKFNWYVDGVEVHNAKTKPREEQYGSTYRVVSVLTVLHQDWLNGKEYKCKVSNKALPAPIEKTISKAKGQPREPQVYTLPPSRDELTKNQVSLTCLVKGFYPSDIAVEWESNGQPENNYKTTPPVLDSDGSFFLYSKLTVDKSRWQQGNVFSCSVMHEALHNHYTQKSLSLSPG
light: DIVLTQSPATLSVSPGERATISCRASQRVSSSTYSYMHWYQQKPGQPPKLLIKYASNLESGVPARFSGSGSGTDFTLTISSVEPEDFATYYCQHSWEIPPTFGGGTKLEIKRTVAAPSVFIFPPSDEQLKSGTASVVCLLNNFYPREAKVQWKVDNALQSGNSQESVTEQDSKDSTYSLSSTLTLSKADYEKHKVYACEVTHQGLSSPVTKSFNRGEC
Turning to B2, the Kd was > 12000 nM with CD32aH (FcγRIIaH); > 5000 nM in the assay with CD16aF (FcγRIIIaF); > 5000 nM with CD16aV (FcγRIIIaV); > 12000 nM with CD32bF (FcγRIIbF); 89.8 nM with FcγRIA (CD64) [1]; 92 nM with FcγRIA (CD64) [2].
